The values below come from US20250333501A1 (University of California, published 2025).

To fix the notation:
T1: human CLDN6 fused to GFP, expressed on engineered HEK293T cells (HEK293T-CLDN6-mGFP) (human, UniProt P56747 1-220)
T1 construct: It calls residues 1-21 a signal peptide; also called Claudin-6; HEK293T-CLDN6-mGFP Artificial CLDN6+; not shown: mGFP tag
T1 sequence: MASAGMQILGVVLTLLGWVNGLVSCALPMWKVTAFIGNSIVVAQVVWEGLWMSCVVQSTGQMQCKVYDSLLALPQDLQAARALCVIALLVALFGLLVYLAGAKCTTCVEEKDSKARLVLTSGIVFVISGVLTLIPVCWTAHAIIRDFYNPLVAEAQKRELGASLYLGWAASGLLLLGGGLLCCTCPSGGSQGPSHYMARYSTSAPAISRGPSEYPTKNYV

T2: CLDN6 endogenously expressed by human cancer cell lines (ARK2, OVCA429) (human, UniProt P56747 1-220)
T2 construct: Untagged endogenous protein; also called Endogenous CLDN6+
T2 sequence: T1 sequence

B1: AB16 (antibody, V domains shown)
VH: EVRLVESGGGLMQPGGSLKLPCAASGFPFSSSAMSWVRQTPEKRLEWVASINSDGNTYYPDSVKGRFTISRDSARNILYLQMSSLRSEDTAMYYCTRNGDYRYDEFAYWGQGTLVTVSA
VL: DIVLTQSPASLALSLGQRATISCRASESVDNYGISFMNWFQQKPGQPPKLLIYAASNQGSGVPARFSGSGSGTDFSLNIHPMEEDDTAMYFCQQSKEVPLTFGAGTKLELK
notes: Labelled with Alexa Fluor 647 NHS ester for FACS
B2: AB4 (antibody, V domains shown)
VH: QVQLQQSGAELARPGASVKMSCKASGYTFTSYTMHWIKQRPGQGQEWIGYINPSSTYTHYIKKFKDKATLTADKSSSTAYMQLRSLTSEDSAVYYCSRGELGGFAYWGQGTLVTVSA
VL: DVVMTQTPLSLPVSLGDQASISCRSSQSLVHSDGNTYLNWYLQKPGQSPKLLIYKVSNRFSGVPDRFSGSGSGTDFTLKIRRVEAEDLGVYFCSQSTHVPYTFGGGTKLEIK
notes: Labelled with Alexa Fluor 647 for FACS and with Texas Red-X in the internalization assay
B3: AB8 (antibody, V domains shown)
VH: QVQLQQSGAELARPGASVKMSCKASGYTFTTYTMHWLKQRPGQGLEWIGYINPRSGYSNYNQKFKDKATLTADKSSNTAYMQLNTLTSEDSKVYYCSRGELGGFAYWGQGTLVTVSA
VL: B2 VL with N39Y, R81S
notes: as for B1
B4: AB1 (antibody, V domains shown)
VH: QVQLQQSAAELARPGASVKMSCKASGYTFTTYTMHWVKQRPGQGLEWIGFINPSSGYTDYNQKFKDRTTLTADKSSSTVYMQLSSLTSEDSAVYYCANGDYYVAYWGQGTLVTVSA
VL: QIVLTQSPAIMSASLGERVTMTCTASSSVSSTYFHWYQQKPGSSPKLWIYSTSNLASGVPRRFSGSASGTSYSLTISSMEAEDAATYYCHQYHRSPLTFGAGTKLELK
notes: as for B1
B5: AB7 (antibody, V domains shown)
VH: EVQLQQSGPELVKPGASMKISCKASGYSFTGYTMNWVKQSHGKNLEWIGLINPYNGGTNYNQKFKGKATLTVDKSSSTAYMELLSLTSEDSAVYYCARGVYDYDGFTYWGQGTLVTVSA
VL: B4 VL with E17D, T32S, F34L, R61A, A67G, L97P, A101S, L107I
notes: as for B1
B6: AB17 (antibody, V domains shown)
VH: QVQLQQSGAELAKPGASVKMSCKASGYTFTGYWMHWVKQRPGQGLEWLGYINPSTGYTESNQKFKDKATLTADKSSTTAYMQLRSLTPEDSAVYYCAREGITTVLVDYWGQGTTLTVSS
VL: B4 VL with T32S, F34L, R61A, A67G, L97P
notes: as for B1
B7: AB6 (antibody, V domains shown)
VH: DVQLQESGPGLVKSSQSLSLTCSVTGYSITSGYYWKWIRQFPGNKLEWMGYISYDGGINYNPSLKNRISITRDTSKNQFFLKLNSVTTEDTAKYYCARFGKGAMDYWGQGTSVTVSS
VL: AIVMFQSPSSLVVSAGEKVTMSCKSSQSLLNSRTRKNYLAWYQQKPGQSPKLLIYWASTRESGVPDRFTGSGSGTDFTLTISSVQAEDLAVYYCKQSYYLYTFGGGTKLEIK
notes: as for B1
B8: AB3 (antibody, V domains shown)
VH: EVKLEESGGGLVQPGGSMKLSCVASGFTFSNYWMNWVRQSPEKGLEWVAQIRLKSDNYATHYAESVKGRFTISRDDSKRSVYLQMNNLRAEDTGTYYCNDGPPSGCWGQGTTLIVSS
VL: DIQMTQSPASLSASVGETVTITCRISENIYSYLAWYQQKQGKSPQLLVYNAKILVEGVPSRFSGSGSGTQFSLKINSLQPEDFGNYYCQHHYTVPWTFGGGTKLEIK
notes: as for B2
B9: AB2 (antibody, V domains shown)
VH: B8 VH with N31D
VL: B8 VL
notes: as for B1
B10: AB5 (antibody, V domains shown)
VH: EVQLQQSGPELVKPGASVKMSCKASGYIFTHYIMHWVKQKPGQGLEWIGCINPYNDGTKYNEKFKGKATLTSDKSSSTAYMELSSLTSEDSAVYYCARYYGYPYYSMDYWGQGTSVTVSS
VL: DVLMTQTPLSLPVSLGDQPSISCRSSQSIVHSNGNTYLDWYLQKPGQSPKLLIYKVSNRFSGVPDRFSGSGSGTDFTLKISRVEAEDLGVYYCFQGSHVPFTFGSGTRLEIK
notes: as for B1
B11: AB19 (antibody, V domains shown)
VH: EVQLQQSGPELVKPGGSMKISCKASGYSFTGYTMNWVKRSHGKNLEWIGLINPYNGVTTYNQNFKGKATLAVDKSSSTAYMELLGLTSEDSAVYYCTRDPLYYGYRDSTMDYWGQGTSVTVSS
VL: NIMMTQSPSSLAVSAGEKVTMSCKSSQSVLFSSNQKNYLAWYQQKPGQSPRLLIYWASTRESGVPDRFTGSGSGTDFTLTISNVQAEDLAVYYCHQYLSSRTFGAGTKLELK
notes: as for B1
B12: AB11-3 (antibody, V domains shown)
VH: EVQLVESGGGLVQPGGSLRLSCAASGFTFSSFGMHWVRQAPGKGLEWVAYISSDSRTIYYADSVKGRFTISRDNAKNSLYLQMNSLRAEDTAVYYCARDYGRTYEAYWGQGTLVTVSS
VL: DIVLTQSPDSLAVSLGERATINCRASKSVSTSGYSYIHWYQQKPGQPPKLLIYLASNLESGVPDRFSGSGSGTDFTLTISSVQAEDVAVYYCQHSRELPLTFGQGTKLELK
notes: also called Humanized AB 11-3

Changes are numbered by the printed parent chain. A value given as a limit tells only on which side of the number the result lay.

One may read the EC50 as the concentration that produces a half-maximal response.

The first assay addresses T1, human CLDN6 fused to GFP, expressed on …. Put plainly: FACS, AF647-labelled mAb, HEK293T-CLDN6-mGFP cells. As for the experimental part:
(§1) Antibodies were purified and cell surface binding of the antibodies to CLDN6 and the antibody IC₅₀ were determined by FACS in which CLDN6 antibodies were directly conjugated with Alexa Fluor® 647 NHS Ester (Succinimidyl Ester), Cat #A20106 (ThermoFisher Scientific) following the manufacturer's protocol. CLDN6 antibodies were tested from 0.32 nM to 1000 nM (serial dilution 1:5, 6 points) in a 50 μl volume with 150,000 cells system.
(§2) CLDN6-expressing cells were used in FACS assays to determine the CLDN6 antibody's ability to bind to CLDN6 on the surface of cells and to cross-react with other CLDN family members. HEK293 T cells engineered to express human CLDN6 fused to GFP, mouse CLDN6 fused to GFP, CLDN9-GFP, CLDN4-GFP, or CLDN3-GFP, or GFP alone (without CLDN6) were used as artificial models of CLDN6 expression. ARK2, OVCA429, LS513 and MCF7 cells were used as endogenous models of CLDN6 expression, as well as models for CLDN3/4 expression.
(§3) For each type of cell tested and for each mAb, cells were detached from the surface of the culture flasks by EDTA (instead of trypsin) in order to protect the cell surface proteins. The detached cells were then incubated with Alexa Fluor®-labeled CLDN6 mAbs for 30 min in the dark on ice at a pre-determined concentration. The CLDN6 mAbs were directly labeled with Alexa Fluor® 647 NHS Ester (Succinimidyl Ester). After washing, the cells were read by a BD Accuri™ Flow Cytometer C6 to detect antibody-antigen protein binding in channel FL4H. Each antibody was tested at varied concentrations to establish a dose-fluorescence curve. The EC50/IC50 of the antibodies (the concentration of the antibody at which half the max value were calculated based on the values of FL4H (gated in viable singlet cells) using the Very Simple IC50 Tool kit available online which allows biological dose-response data to be plotted and fitted to curve types to give the EC50/IC50. The max value was the lowest concentration of the antibody at which fluorescence maxes out. The antibodies were also screened for their ability to cross-react with other CLDN proteins such as CLDN9, CLDN3, and CLDN4. These values were used to determine each antibody's relative affinity among the set of antibodies tested. Cross-reactivity data were obtained using a similar methodology, but with cells having a different expression profile for CLDN6, CLDN3, CLDN4 and CLDN9.
A general note: Flow cytometry measures light scatter and fluorescence of single cells or particles in a stream.
Molecule B1 had a concentration for a half-maximal effect (EC50) of no less than 5 µM.
The same measure, in the same setting: next, B2: 0.017 µM; B3: 1.92 µM.
Still for that read-out and setting: next, B4: 0.109 µM; B5: 0.579 µM; B6: 2.65 µM.
The same measure, in the same setting: next, B7: 1.43 µM; B8: 0.604 µM; B9: 0.182 µM.
B10 came in with an EC50 of 0.01 µM.
On the same count and under the same terms, the figure for B11 is no less than 5 µM.

For a further assay, the target named is T2, CLDN6 endogenously expressed by human …. In words: FACS, 1.5 µg Ab, ARK2 cells. On the procedure:
(§4) FACS assays were also carried out to determine relative antigen binding strengths of the humanized antibodies (at either 1.5 μg or 0.3 μg) for binding to CLDN6 as expressed by the indicated cancer cell lines. 2nd Ab only was used as a negative control.
B12 yielded an FACS fluorescence of 1540.

A further assay shares this target. In words: FACS, 1.5 µg Ab, OVCA429 cells.
The molecule B12 displayed an FACS fluorescence of 2200.

Another assay has the same target. In words: FACS, AF647-labelled mAb, ARK2 cells. On the procedure: as §1, §2, §3
In turn, B2 displayed a 50% effective concentration (EC50) of 0.048 µM.
The same measure, in the same setting: the figure for B3 is 1.14 µM; for B4 it is 0.105 µM.
The same measure, in the same setting: next, B5: 0.353 µM; B7: 0.765 µM.
For B8, the concentration for a half-maximal effect (EC50) turned out to be 1.65 µM.
The same measure, in the same setting: the figure for B9 is 1.36 µM; for B10 it is 0.008 µM.

The target is the same in another assay. In words: FACS, AF647-labelled mAb, OVCA429 cells. On the procedure: as §1, §2, §3
Consider B2, for which the response was half-maximal at 0.168 µM (EC50).
Still for that read-out and setting: the figure for B3 is 1.09 µM.
Still for that read-out and setting: next, B4: 0.084 µM; B5: 0.531 µM; B7: 0.394 µM.
Still for that read-out and setting: next, B8: 1.1 µM; B9: 0.912 µM; B10: 0.005 µM.

A further assay deals with T1, human CLDN6 fused to GFP, expressed on …. Put plainly: FACS, 0.3 µg Ab, 293T clone with human CLDN6. The procedure, abridged:
(§5)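 Using a direct-binding flow cytometry method essentially as in the source, humanized antibodies were tested on engineered 293T clones expressing human CLDN6. Labelled antibody (Alexa Fluor 647 NHS ester) was added at 0.3 µg or 1.5 µg to EDTA-detached cells, which were kept on ice in the dark for 30 min, washed and read in channel FL4H of a BD Accuri C6. Fluorescence indicates relative antigen binding strength.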
Take B12: the FACS fluorescence came out at 1010.

The next assay has as its target T2, CLDN6 endogenously expressed by human …. Put plainly: FACS, 0.3 µg Ab, ARK2 cells. On the procedure: as §4
Consider B12, for which the FACS fluorescence is 1320.

In a further assay the target is T1, human CLDN6 fused to GFP, expressed on …. In words: FACS, 1.5 µg Ab, 293T clone with human CLDN6. The procedure, abridged: as §5
As for B12, the FACS fluorescence was 2360.
